Columns and labels:
[1] = target: EAKH6 self-assembling peptide (EAK16-II with a C-terminal hexa-histidine tag)
[2] = target: EAKH6 self-assembling peptide (EAK16-II with a C-terminal hexa-histidine tag); remark: listed apart in the source
[3] = target: the molecule itself; experiment: Congo red staining (fluorescence microscopy and UV-vis absorbance); EAKH6 alone and with Zn2+ at molar ratios 1:20 to 20:1, incubated with Congo red in PBS overnight at room temperature; fibrils imaged, shift of absorbance from 500 to 540 nm

| apparent diffusion (D app) of HisGFP out of Ca2+:EAKH6 coacervates (without Zn2+), control, from the release up to 8 h [1] | apparent diffusion (D app) of HisGFP out of Zn2+:EAKH6 coacervates, from the release up to 8 h [1] | in vitro release of HisGFP from Ca2+:EAKH6 (10:1, without Zn2+) coacervates, control; released in 5 days [2] | Molecule | binding result [3] |
| --- | --- | --- | --- | --- |
| 2.07e-11 m^2 s^-1 | 6.7e-12 m^2 s^-1 | 98% | Green Fluorescent Protein coexpressed with a hexahistidine tag |  |
|  |  |  | Ac-AEAEAKAKAEAEAKAKHHHHHH-NH2 (hexa-histidine tag (H6) at the C-terminus; written as a part because Zn2+ bridges it to the His tag of the cargo protein; In the assays the peptide stood as self-assembled fibrils (coacervate), with ZnCl2 or CaCl2 where said; also called Zn2+:EAKH6 (its coacervate with zinc); Ca2+:EAKH6 (with calcium); source: synthetic peptide, custom-synthesized by Biomatek (>95% purity by HPLC)) [EAKH6 self-assembling peptide (EAK16-II with a C-terminal hexa-histidine tag)] | binds |
